T1: Recombinant human Guanylate Cyclase 1 (human, UniProt Q02846 52-1103)
T1 sequence (looked up): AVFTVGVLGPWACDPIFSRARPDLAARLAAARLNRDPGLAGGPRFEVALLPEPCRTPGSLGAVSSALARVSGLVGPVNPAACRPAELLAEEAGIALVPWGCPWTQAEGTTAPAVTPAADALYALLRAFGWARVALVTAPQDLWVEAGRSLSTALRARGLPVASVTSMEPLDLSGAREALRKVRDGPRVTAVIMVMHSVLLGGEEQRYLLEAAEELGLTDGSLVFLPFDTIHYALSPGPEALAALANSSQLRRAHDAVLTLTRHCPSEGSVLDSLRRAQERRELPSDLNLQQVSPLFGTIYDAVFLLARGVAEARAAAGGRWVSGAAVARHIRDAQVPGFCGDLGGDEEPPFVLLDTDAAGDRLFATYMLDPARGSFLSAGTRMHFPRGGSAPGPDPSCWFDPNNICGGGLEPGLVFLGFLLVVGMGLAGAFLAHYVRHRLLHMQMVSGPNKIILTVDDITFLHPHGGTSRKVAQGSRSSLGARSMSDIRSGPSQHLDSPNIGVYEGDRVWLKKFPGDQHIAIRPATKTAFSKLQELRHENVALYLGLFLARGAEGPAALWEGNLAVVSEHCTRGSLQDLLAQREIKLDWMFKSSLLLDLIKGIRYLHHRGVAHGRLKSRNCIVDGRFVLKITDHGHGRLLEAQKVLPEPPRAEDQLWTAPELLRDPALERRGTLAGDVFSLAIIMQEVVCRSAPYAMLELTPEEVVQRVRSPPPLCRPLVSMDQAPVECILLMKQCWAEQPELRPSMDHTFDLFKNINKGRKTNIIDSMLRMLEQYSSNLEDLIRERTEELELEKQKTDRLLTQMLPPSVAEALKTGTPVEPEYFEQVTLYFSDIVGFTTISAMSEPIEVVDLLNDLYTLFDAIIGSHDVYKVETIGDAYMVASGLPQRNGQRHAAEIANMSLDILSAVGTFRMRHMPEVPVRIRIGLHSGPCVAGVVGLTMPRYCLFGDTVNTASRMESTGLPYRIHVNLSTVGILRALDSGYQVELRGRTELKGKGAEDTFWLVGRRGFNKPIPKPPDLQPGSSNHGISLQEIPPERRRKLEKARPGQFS


Key:
[1] = molecular target: T1, Recombinant human Guanylate Cyclase 1
[2] = molecular target: T1, Recombinant human Guanylate Cyclase 1; experiment: cell-based or functional assay

Row | Binder | GC activity (cGMP synthesis) of cell membranes containing GC with ~10 µM GCAP1, 1 mM Mg2+ and 2 mM EGTA (absence of Ca2+) (nmol cGMP*min^−1*mg protein^−1) [1] | fold decrease of cGMP synthesis at 33 µM free Ca2+ (inhibiting conditions) against the maximal activation without Ca2+ [1] | fold decrease of cGMP synthesis at 33 µM free Ca2+ against the respective maximal activation without Ca2+ [2]
1 | Guanylate Cyclase activating protein 1 (GCAP1) WT (natural protein, myristoylated forms were obtained by co-transformation with yeast N-myristoyl transferase; which form stood in each experiment is not stated) MGNVMSGKSVEELSSTECHQWYKKFMTECPSGQLTLYEFRQFFGLKNLSPSASQYVEQMFETFDFNKDGYIDFMEYVAALSLVLKGKVEQKLRWYFKLYDVDGNGCIDRDELLTIIQAIRAINPCSDTTMTAEEFTDTVFSKIDVNGDGELSLEEFIEGVQKDQMLLDTLTRSLDLTRIVRRLQNGEQDEEGADEAAEAAG | 20.4 | 34 fold | –
2 | GCAP1 G86R+W94F (natural protein, human, UniProt P43080 1-201, looked up, myristoylated forms were obtained by co-transformation with yeast N-myristoyl transferase; which form stood in each experiment is not stated) MGNVMSGKSVEELSSTECHQWYKKFMTECPSGQLTLYEFRQFFGLKNLSPSASQYVEQMFETFDFNKDGYIDFMEYVAALSLVLKRKVEQKLRFYFKLYDVDGNGCIDRDELLTIIQAIRAINPCSDTTMTAEEFTDTVFSKIDVNGDGELSLEEFIEGVQKDQMLLDTLTRSLDLTRIVRRLQNGEQDEEGADEAAEAAG | – | – | 3 fold

Results, then the binder that gave them:

Row | GC activity (cGMP synthesis) of cell membranes containing GC with ~10 µM GCAP1, 1 mM Mg2+ and 2 mM EGTA (absence of Ca2+) (nmol cGMP*min^−1*mg protein^−1) [1] | fold decrease of cGMP synthesis at 33 µM free Ca2+ (inhibiting conditions) against the maximal activation without Ca2+ [1] | fold decrease of cGMP synthesis at 33 µM free Ca2+ against the respective maximal activation without Ca2+ [2] | Binder
3 | – | – | 2 fold | GCAP1 G86R (natural protein, human, UniProt P43080 1-201, looked up, myristoylated forms were obtained by co-transformation with yeast N-myristoyl transferase; which form stood in each experiment is not stated) MGNVMSGKSVEELSSTECHQWYKKFMTECPSGQLTLYEFRQFFGLKNLSPSASQYVEQMFETFDFNKDGYIDFMEYVAALSLVLKRKVEQKLRWYFKLYDVDGNGCIDRDELLTIIQAIRAINPCSDTTMTAEEFTDTVFSKIDVNGDGELSLEEFIEGVQKDQMLLDTLTRSLDLTRIVRRLQNGEQDEEGADEAAEAAG
4 | – | – | 4 fold | GCAP1 G86R+W94L (natural protein, human, UniProt P43080 1-201, looked up, myristoylated forms were obtained by co-transformation with yeast N-myristoyl transferase; which form stood in each experiment is not stated) MGNVMSGKSVEELSSTECHQWYKKFMTECPSGQLTLYEFRQFFGLKNLSPSASQYVEQMFETFDFNKDGYIDFMEYVAALSLVLKRKVEQKLRLYFKLYDVDGNGCIDRDELLTIIQAIRAINPCSDTTMTAEEFTDTVFSKIDVNGDGELSLEEFIEGVQKDQMLLDTLTRSLDLTRIVRRLQNGEQDEEGADEAAEAAG

— PMC7037459, “Constitutive Activation of Guanylate Cyclase by the G86R GCAP1 Variant Is Due to “Locking” Cation-π Interactions that Impair the Activator-to-Inhibitor Structural Transition” (International Journal of Molecular Sciences, 2020)
